From patent publication US20250289891A1 (AUTOLUS, published 2025) come the findings set out here.

B1: Anti-FcRH5 VHH-CAR 66828 (VHH of AU60390), on Jurkat T cells (protein, not shown: large carriers)
chain: QVQLQQSGGGLVQAGDSLRLSCAASGRTFSNSTMGWFRQAPGKERKFVAVISWSGGTYAYAESVKGRFTISRDNAKNTVYLQMNSLKPEDTAVYYCAAARKGWSTRGDDYDYWGQGTQVTVS
B2: Anti-FcRH5 VHH-CAR 66831 (VHH of AU60462), on Jurkat T cells (protein, not shown: large carriers)
chain: QVQLQESGGGLVQAGGSLRLSCTASGRTSSRAAMGWFRQAPGKEREFVAVISWSGGTTAYANSVKGRFTISRDNAKNTLYLQMNSLKPEDTAVYYCAAARIFTTARNDYDHWGQGTQVTVS
B3: Anti-FcRH5 VHH-CAR 66823 (VHH of AU60385), on Jurkat T cells (protein, not shown: large carriers)
chain: QVQLQESGGGLVQAGGSLRLSCAASGRTFSTYAMAWFRQAPGKEREFVAAISGFGVVTYYADSVKGRFTISRDNAKNTLYLQMNGLKPEDTAVYYCAAGRRTSTNGGDYDYWGQGTQVTVS
B4: Anti-FcRH5 VHH-CAR 66829 (VHH of AU60460), on Jurkat T cells (protein, not shown: large carriers)
chain: QVQLQESGGGLVQAGGSLRLSCAASGRTYNNYAMGWFRQAPGKEREFVAGISRSGGMTGYAESVKGRFTISRDNAKNMVFLQMNSLKPEDTAVYYCAAYVGGFSTARRDYSYWGQGTQVTVS
B5: Anti-FcRH5 VHH-CAR 66825 (VHH of AU60387), on Jurkat T cells (protein, not shown: large carriers)
chain: QVQLQESGGGLVQAGGSLRLSCAASGRTFSTYGMGWFRQAPGKEREFVAAISRSGGATAYAASVKGRFTISRDDVKNTLYLQMNSLKPEDTAVYHCAGTRRAFSTGLRDYDYWGQGIQVTVS
B6: Anti-FcRH5 VHH-CAR 66835 (VHH of AU60466), on Jurkat T cells (protein, not shown: large carriers)
chain: QVQLQQSGGGLVQAGGSLSLSCTASGRSFSNYGMGWFRQAPGKEREFVAAIGMVGGLTAYSNSAKGRFTISRDNAKNTLYLQMNSLKPEDTAVYLCAAGRRFSTSSRDYDIWGQGTQVTVS
B7: Anti-FcRH5 VHH-CAR 66836 (VHH of AU60467), on Jurkat T cells (protein, not shown: large carriers)
chain: QVQLQESGGGLVQAGDSLRLSCAASGRTFDSRPMGWFRQAPGKEREFVGAVSWRGESTYYPDSVKGRFTISRDNAKRTVYLQMNSLKPEDTAVYYCAAGEPYSGTYYYRGRDYDYWGQGTQVTVS
B8: Anti-FcRH5 VHH-Fc AU60462 (AbVec.aFcRH5.dAb-MIgG2a-Fc.Clone.E04) (Fc fusion)
chain: B2 chain
notes: VHH fused to murine IgG2a Fc; not shown: murine IgG2a Fc domain
B9: Anti-FcRH5 VHH-Fc AU60369 (AbVec.aFcRH5.dAb-MIgG2a-Fc.Clone.B03) (Fc fusion)
chain: QVQLQESGGGLVQAGGSLRLSCAASRSSFSNNAMGWYRQVPGKQRELVAFITKGGVTDYSDSVKGRFTISKDNAKNTVYLQMNSLKPEDTAVYYCNTIPFRSAWGQGTQVTVS
notes: VHH fused to murine IgG2a Fc, expi-CHO, Protein A purified; not shown: murine IgG2a Fc domain
B10: Anti-FcRH5 VHH-Fc AU60385 (AbVec.aFcRH5.dAb-MIgG2a-Fc.Clone.B07 as printed in Table 3; Clone B11 in Table 9) (Fc fusion)
chain: B3 chain
notes: not shown: murine IgG2a Fc domain
B11: Anti-FcRH5 VHH-Fc AU60460 (AbVec.aFcRH5.dAb-MIgG2a-Fc.Clone.C10) (Fc fusion)
chain: B4 chain
notes: as for B8
B12: Anti-FcRH5 VHH-Fc AU60466 (AbVec.aFcRH5.dAb-MIgG2a-Fc.Clone.F01) (Fc fusion)
chain: B6 chain
notes: as for B10
B13: Anti-FcRH5 VHH-Fc AU60463 (AbVec.aFcRH5.dAb-MIgG2a-Fc.Clone.E07) (Fc fusion)
chain: QVQLQESGGGLVQAGDSLRLSCAYSGRTFSSYAMGWFRQAPGKERVFVAAISRIGGVTTYAESVQGRFTISRDNAKNTLYLQMNALKPEDTAVYYCAAAGLVSISTTPNDYDYWGQGTQVTVS
notes: as for B10
B14: Anti-FcRH5 VHH-Fc AU60370 (AbVec.aFcRH5.dAb-MIgG2a-Fc.Clone.B04) (Fc fusion)
chain: QVQLQESGGGSVQPGGSLSLSCAASGFTFSNYAMSWVRQAPGKGPEWVAVINSDGGTASSAGSVRGRFTISRDNAKNTLYLQMNRLKPEDTAVYYCAANRGFCAGVRCLEYQYWGQGTQVTVS
notes: as for B10
B15: Anti-FcRH5 VHH-Fc AU60470 (AbVec.aFcRH5.dAb-MIgG2a-Fc.Clone.F11) (Fc fusion)
chain: QVQLQESGGGLVQAEGSLRLSCAASGRTFSMYAMGWFRQAPGREREFVAAISGSARITYYGQSVKGRFTISRDNAKNTVYLQMNSLKPEDTAVYYCAASSTYTSTSGSSYNYWGQGTQVTVS
notes: as for B10
B16: Anti-FcRH5 VHH-Fc AU60471 (AbVec.aFcRH5.dAb-MIgG2a-Fc.Clone.F12) (Fc fusion)
chain: QVQLQESGGGLVQAGGSLRLSCAASGSIFSINAMGWYRQAPGKQRELVAFITSGGSTNYADSVKGRFTISRDNAKNTVYLQMNSLKPEDTAVYYCNALGGFVPSYGWGQGTQVTVS
notes: as for B8
B17: Anti-FcRH5 VHH-Fc AU60464 (AbVec.aFcRH5.dAb-MIgG2a-Fc.Clone.E11) (Fc fusion)
chain: QVQLQQSGGGLVQPGGSLRLSCAAPGNIFRLNGTGWYRQAPGKQRELVAHITSGGNTDYADSVKGRFTISRDNAKNTVYLQMNSLKPEDTAVYYCNAIPFRLSWGQGTQVTVS
notes: as for B10
B18: Anti-FcRH5 VHH-Fc AU60382 (AbVec.aFcRH5.dAb-MIgG2a-Fc.Clone.B07) (Fc fusion)
chain: QVQLQESGGGLVQAGGSLIVSCAASGRTFSINAMAWFRQAPGKEREFVAAIGGSGRVSSTSYADFVKGRFTISRDNAKNTVYLRMNNLEPEDTAVYYCAARRDYLPFPPESYDYWGQGTQVTVA
notes: as for B10
B19: Anti-FcRH5 VHH-Fc AU60465 (AbVec.aFcRH5.dAb-MIgG2a-Fc.Clone.E12) (Fc fusion)
chain: QVQLQESGGGLVQAGGSLRLSCVVSRNIFSLNPMGWYRQAPGKQREMVAIITDGGSTNYADSVKGRFTISRDNVKNTVYLQMNALEPEDTAVYYCNRVGGLQTWAWGQGTQVTVSS
notes: as for B10

In one test the target is T1, Plate bound FcRH5 antigen (UniProt Q96RD9).
T1 sequence (looked up): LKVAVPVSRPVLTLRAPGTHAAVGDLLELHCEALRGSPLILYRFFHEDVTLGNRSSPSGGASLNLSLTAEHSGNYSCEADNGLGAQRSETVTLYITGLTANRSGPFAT
Nature of the test: cell-based or functional assay.
The molecule B1 displayed an EC50 (µg/ml) of percentage Nur77 activation by plate bound FcRH5 antigen (µg/ml FcRH5 coating) of 1.8 and a Nur77-mClover positive cells after 24 h 10 µg/ml (% upregulation) of 34.2%.
With B2, the Nur77-mClover positive cells after 24 h 10 µg/ml (% upregulation) stood at 2.59%.
Consider B3, for which the EC50 (µg/ml) of percentage Nur77 activation by plate bound FcRH5 antigen (µg/ml FcRH5 coating) is 1.54 and the Nur77-mClover positive cells after 24 h 10 µg/ml (% upregulation) was 26.5%.
Regarding B4, the EC50 (µg/ml) of percentage Nur77 activation by plate bound FcRH5 antigen (µg/ml FcRH5 coating) was 1.43 and the Nur77-mClover positive cells after 24 h 10 µg/ml (% upregulation) came out at 44.5%.
In the case of B5, the EC50 (µg/ml) of percentage Nur77 activation by plate bound FcRH5 antigen (µg/ml FcRH5 coating) came out at 2.42 and the Nur77-mClover positive cells after 24 h 10 µg/ml (% upregulation) was found to be 39%.
The corresponding values for B6 are 0.977 and 45.5%.
The molecule B7 had a Nur77-mClover positive cells after 24 h 10 µg/ml (% upregulation) of 0.898%.

For another test, the target named is T2, Recombinant purified FcRH5 Ig-8 domain (UniProt Q96RD9 743-850, limits assumed).
T2 construct: domain: Ig8
T2 sequence (looked up): T1 sequence (looked up)
Briefly: SPR, Biacore 8k, VHH-mIgG2a Fc captured by anti-mouse kit on CM5, FcRH5 Ig8 as analyte (500 nM, 2-fold dilutions), 1:1 Langmuir fit, 25 C. As for the experimental part: Recombinant anti-FcRH5 antibodies in mouse IgG2a format were captured on flow cell 2 on a Series S CM5 chip (GE Healthcare), functionalised with anti-mouse capture kit according to manufacturer's recommendations (GE Healthcare). Antibodies were captured to a density of 160 RU using a Biacore 8k instrument. HBS-P+ buffer was used as running buffer in all experimental conditions. Recombinant purified FcRH5 Ig-8 domain at known concentrations (500 nM with 2-fold serial dilutions) used as the ‘analyte’ and injected over the respective flow cells with 150s contact time and 500s dissociation at 30 μl/minute of flow rate with a constant temperature of 25° C. In each experiment, flow cell 1 was unmodified and used for reference subtraction. A ‘0 concentration’ sensogram of buffer alone was used as a double reference subtraction to factor for drift. Data were fit to a 1:1 Langmuir binding model. Since a capture system was used, a local maximal analytical response (Rmax) parameter was used for the data fitting in each case.
A general note: Surface plasmon resonance follows binding to a sensor surface in real time, without labels.
Take B8: the Kd (as a rule, the constant that tells how readily two partners part at equilibrium) was 5.8 nM; the koff – broadly, the first-order rate constant of dissociation – worked out at 0.000293 s⁻¹; the kon (usually the rate constant with which the complex forms) is 50500 M⁻¹ s⁻¹.
On the same counts, the results for B9 are 4.77 nM, 0.00246 s⁻¹ and 516000 M⁻¹ s⁻¹.
B10: the Kd is 6.56 nM, the koff was determined as 0.000348 s⁻¹ and the kon was found to be 53100 M⁻¹ s⁻¹.
As for B11, the Kd came out at 0.669 nM, the koff came to 3.4e-05 s⁻¹ and the kon was determined as 50800 M⁻¹ s⁻¹.
On the same counts, the results for B12 are 3.14 nM, 0.000469 s⁻¹ and 150000 M⁻¹ s⁻¹.
On the same counts, the results for B13 are 2.99 nM, 0.000161 s⁻¹ and 53800 M⁻¹ s⁻¹.
On the same counts, the results for B14 are 3.64 nM, 0.00028 s⁻¹ and 76800 M⁻¹ s⁻¹.
Consider B15, for which the Kd was 0.255 nM, the koff came out at 1.81e-05 s⁻¹ and the kon stood at 70800 M⁻¹ s⁻¹.
With B16, the Kd is 0.757 nM, the koff was 0.00025 s⁻¹ and the kon came to 330000 M⁻¹ s⁻¹.
As to B17, the dissociation constant (Kd) worked out at 4.84 nM, the koff turned out to be 0.00289 s⁻¹ and the kon is 596000 M⁻¹ s⁻¹.
The corresponding values for B18 are 4.34 nM, 0.000515 s⁻¹ and 119000 M⁻¹ s⁻¹.
On the same counts, the results for B19 are 4.54 nM, 0.00306 s⁻¹ and 673000 M⁻¹ s⁻¹.
